From PMC7215387, “Comparison of Target Recognition by TRAF1 and TRAF2” (International Journal of Molecular Sciences, 2020) come the findings set out here.

In general, Kd refers to the concentration at which binding is half-saturated. High values mean a looser complex, low ones a tighter complex.

The assay deals with TRAF2 S454A mutant. Put plainly: Isothermal titration calorimetry (ITC), TRAF2 S454A mutant. It counts as binding. The note with it: Supplementary Figure S1. The protocol: The binding affinities between TRADD-N and TRAF1 or TRAF2 were further quantitatively analyzed using surface plasmon resonance (SPR) experiments (Figure 3a,b). For the SPR experiment, each purified 6xHis-tagged TRAF1 and TRAF2 was coupled to Ni-NTA sensor chips using a His-tag affinity system. Different concentrations of TRADD-N protein, from 0.39 to 3.125 μM, were analyzed for binding to TRAF1 or TRAF2. […] Given their interaction patterns and affinity differences in complex formation, we modeled the structure of the TRAF1:TRADD-N complex by docking TRADD-N to a previously solved TRAF1 structure based on the TRAF2:TRADD-N complex to better understand the affinity differences (Figure 3c,d). According to the previously determined structure of the TRAF2:TRADD-N complex, two distinct binding regions, Region I and II, were identified (Figure 3e). The specific residues from TRAF2 that contributed to the interaction in Region I were T401, H406, L471, and P474. The interaction-contributing residues on TRAF2 in Region II were D445, R448, P449, D450, S454 and G468. All residues in TRAF2 that participated in the interaction with TRADD-N were conserved in TRAF1, except for S454, which was replaced by alanine in TRAF1 (Figure 3f). […]
A NanoITC (TA Instruments) was used for isothermal titration calorimetry experiments. […] Binding isotherms were analyzed by using the software provided by TA Instruments. […]
For orientation: ITC needs no label: the signal is the heat of the interaction.

B1: TRADD-N: N-terminal domain of TRADD (TRADD-N, amino acid residues 1-163) (protein)
chain: MAAGQNGHEEWVGSAYLFVESSLDKVVLSDAYAHPQQKVAVYRALQAALAESGGSPDVLQMLKIHRSDPQLIVQLRFCGRQPCGRFLRAYREGALRAALQRSLAAALAQHSVPLQLELRAGAERLDALLADEERCLSCILAQQPDRLRDEELAELEDALRNLK
modifications: left off: His6 (from the vector pET24a), C-terminal, state not stated
Take B1: the Kd was around 55 nM.
